Source: IntAct's records for PubMed 17255092

B1: SWI/SNF complex subunit SMARCC1 (Mus musculus), P97496 (parent)
chain: MAATAGGGPGAAAGAVGAGGAAAASGLAVYRRKDGGPASKFWESPDTVSQLDSVRVWLGKHYKKYVHADAPTNKTLAGLVVQLLQFQEDAFGKHVTNPAFTKLPAKCFMDFKAGGTLCHILGAAYKYKNEQGWRRFDLQNPSRMDRNVEMFMNIEKTLVQNNCLTRPNIYLIPDIDLKLANKLKDIIKRHQGTFTDEKSKASHHIYPYPSSQEDEEWLRPVMRRDKQVLVHWGFYPDSYDTWVHSNDVDAEIEDAPIPEKPWKVHVKWILDTDVFNEWMNEEDYEVDENRKPVSFRQRISTKNEEPVRSPERRDRKASANSRKRKPSPSPPPPTATESRKKSGKKGQASLYGKRRSQKEEDEQEDLTKDMEDPTPVPNIEEVVLPKNVNPKKDSENTPVKGGTVADLDEQDEEAVTTGGKEDEDPSKGDPSRSVDPGEDNVTEQTNHIIIPSYASWFDYNCIHVIERRALPEFFNGKNKSKTPEIYLAYRNFMIDTYRLNPQEYLTSTACRRNLTGDVCAVMRVHAFLEQWGLVNYQVDPESRPMAMGPPPTPHFNVLADTPSGLVPLHLRSPQVPAAQQMLNFPEKNKEKPIDLQNFGLRTDIYSKKTLAKSKGASAGREWTEQETLLLLEALEMYKDDWNKVSEHVGSRTQDECILHFLRLPIEDPYLENSDASLGPLAYQPVPFSQSGNPVMSTVAFLASVVDPRVASAAAKAALEEFSRVREEVPLELVEAHVKKVQEAARASGKVDPTYGLESSCIAGTGPDEPEKLEGSEEEKMETDPDGQQPEKAENKVENESDEGDKIQDRENEKNTEKEQDSDVSEDVKPEEKENEENKELTDTCKERESDAGKKKVEHEISEGNVATAAAAALASAATKAKHLAAVEERKIKSLVALLVETQMKKLEIKLRHFEELETIMDREKEALEQQRQQLLTERQNFHMEQLKYAELRARQQMEQQQQHGQTPQQAHQHTGGPGMAPLGATGHPGMMPHQQPPPYPLMHHQMPPPHPPQPGQIPGPGSMMPGQPMPGRMIPAVAANIHPTGSGPTPPGMPPMPGNILGPRVPLTAPNGMYPPPPQQQQPPPPADGVPPPPAPGPPASATP

Variants of: B1
Details: with snf5_mouse Smarcb1, Q9Z0H3
Chain of snf5_mouse Smarcb1, Q9Z0H3 (Q9Z0H3 whole entry): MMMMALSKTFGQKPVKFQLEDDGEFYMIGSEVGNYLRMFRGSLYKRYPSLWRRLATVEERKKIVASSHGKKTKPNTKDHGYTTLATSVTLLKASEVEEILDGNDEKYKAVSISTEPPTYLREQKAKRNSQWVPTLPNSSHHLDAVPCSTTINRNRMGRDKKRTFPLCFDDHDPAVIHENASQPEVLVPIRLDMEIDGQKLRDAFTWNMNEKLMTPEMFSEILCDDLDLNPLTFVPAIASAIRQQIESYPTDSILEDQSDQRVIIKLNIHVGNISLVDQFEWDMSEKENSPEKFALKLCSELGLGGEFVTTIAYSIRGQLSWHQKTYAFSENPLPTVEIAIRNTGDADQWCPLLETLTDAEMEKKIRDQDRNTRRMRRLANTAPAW

| effect of a mutation on the interaction | Variant |
| --- | --- |
| decreasing interaction | N535A |
| disrupting interaction | L533A;N535A |
| decreasing interaction | L533A |

Variants of: B1
Details: with snf5_mouse Smarcb1, Q9Z0H3
Remark: another data set of the same source

| effect of a mutation on the interaction | Variant |
| --- | --- |
| disrupting interaction strength | L533A;N535A |
